Starred links: 1 amine or outer side, 2 acyl side, 3 side chain; linkers in the order of their positions; H or OH if unused. Positions of bridges follow the written chain, without caps; N, C: chain ends. Non-standard residues stand in square brackets, D forms with d. Primed or numbered codes have the meaning given here. PyrS2″ = (S)-3-amino-1-((pent-4-en-1-yloxy)carbonyl)pyrrolidine-3-carboxylic acid (stapling residue), C=CCCCOC(=O)N1CC[C@@](N[*:1])(C(=O)[*:2])C1; B5(18) = 2,2-bis(4-pentenyl)glycine (2-amino-2-(pent-4-en-1-yl)hept-6-enoic acid), stitching residue, C=CCCCC(CCCC=C)(N[*:1])C(=O)[*:2]; B5(4) = 2,2-bis(4-pentenyl)glycine = 2-amino-2-(pent-4-en-1-yl)hept-6-enoic acid (stitching residue), C=CCCCC(CCCC=C)(N[*:1])C(=O)[*:2]; B5(5) = 2,2-bis(4-pentenyl)glycine, 2-amino-2-(pent-4-en-1-yl)hept-6-enoic acid (stitching residue), C=CCCCC(CCCC=C)(N[*:1])C(=O)[*:2]; B5(8) = 2,2-bis(4-pentenyl)glycine (2-amino-2-(pent-4-en-1-yl)hept-6-enoic acid, stitching residue), C=CCCCC(CCCC=C)(N[*:1])C(=O)[*:2]; TfeGA = (S)-2-amino-3-((carboxymethyl)(2,2,2-trifluoroethyl)amino)propanoic acid, O=C([C@H](CN(CC(=O)[*:3])CC(F)(F)F)N[*:1])[*:2]; PyrS2 = (S)-3-amino-1-((pent-4-en-1-yloxy)carbonyl)pyrrolidine-3-carboxylic acid, C=CCCCOC(=O)N1CC[C@@](N[*:1])(C(=O)[*:2])C1; PyrS3 = (S)-3-amino-1-((hex-5-en-1-yloxy)carbonyl)pyrrolidine-3-carboxylic acid, C=CCCCCOC(=O)N1CC[C@@](N[*:1])(C(=O)[*:2])C1; SeN = (S)-5-(((allyloxy)carbonyl)(methyl)amino)-2-amino-2-methylpentanoic acid, C=CCOC(=O)N(C)CCC[C@](C)(N[*:1])C(=O)[*:2]; B5(13) = 2-amino-2-(pent-4-en-1-yl)hept-6-enoic acid (two alkene chains), C=CCCCC(CCCC=C)(N[*:1])C(=O)[*:2]; B5(3) = 2,2-bis(4-pentenyl)glycine (stitching residue), C=CCCCC(CCCC=C)(N[*:1])C(=O)[*:2]; Trp(5-Cl) = N[C@@H](Cc1c[nH]c2ccc(Cl)cc12)C(=O)O; Phe(2-Cl) = N[C@@H](Cc1ccccc1Cl)C(=O)O; Phe(3-F) = N[C@@H](Cc1cccc(F)c1)C(=O)O; 2Nal = N[C@@H](Cc1ccc2ccccc2c1)C(=O)O; Phe(2-Me) = Cc1ccccc1C[C@H](N)C(=O)O; Bta = N[C@@H](Cc1csc2ccccc12)C(=O)O; αAllylPro = C=CC[C@@]1(C(=O)O)CCCN1; tBuAla = CC(C)(C)C[C@H](N)C(=O)O; 2Thi = N[C@@H](Cc1cccs1)C(=O)O; 3Thi = N[C@@H](Cc1ccsc1)C(=O)O; S8 = C=CCCCCCC[C@](C)(N)C(=O)O; hLeu = CC(C)CC[C@H](N)C(=O)O
Columns and labels:
[1] = target: full-length beta-Catenin (Uniprot ID P35222) (Homo sapiens (Human)) (UniProt P35222); assay: fluorescence polarization competition: peptide titrated against 10 nM full-length beta-catenin + 10 nM 5FAM-TCF4(10-53) probe
Target sequence in this assay (P35222 2-781 limits assumed): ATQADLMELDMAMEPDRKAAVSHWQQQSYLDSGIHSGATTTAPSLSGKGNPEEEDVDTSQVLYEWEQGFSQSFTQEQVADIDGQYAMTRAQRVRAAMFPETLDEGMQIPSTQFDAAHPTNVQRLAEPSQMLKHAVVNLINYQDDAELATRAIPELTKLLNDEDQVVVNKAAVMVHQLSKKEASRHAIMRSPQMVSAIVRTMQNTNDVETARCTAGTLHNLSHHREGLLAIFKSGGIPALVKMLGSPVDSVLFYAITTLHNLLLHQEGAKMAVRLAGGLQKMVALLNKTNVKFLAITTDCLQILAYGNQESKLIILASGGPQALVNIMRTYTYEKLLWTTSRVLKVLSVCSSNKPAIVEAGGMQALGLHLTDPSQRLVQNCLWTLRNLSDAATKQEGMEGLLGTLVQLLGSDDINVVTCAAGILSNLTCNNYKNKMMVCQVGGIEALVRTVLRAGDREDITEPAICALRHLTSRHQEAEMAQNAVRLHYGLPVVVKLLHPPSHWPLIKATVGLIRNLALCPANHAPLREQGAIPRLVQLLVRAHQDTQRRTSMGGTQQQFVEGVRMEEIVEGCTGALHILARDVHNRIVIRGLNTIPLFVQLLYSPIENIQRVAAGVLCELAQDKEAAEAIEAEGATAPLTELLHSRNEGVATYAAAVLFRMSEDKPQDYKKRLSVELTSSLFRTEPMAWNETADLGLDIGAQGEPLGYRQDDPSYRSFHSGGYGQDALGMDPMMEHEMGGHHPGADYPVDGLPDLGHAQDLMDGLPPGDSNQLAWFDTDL

[2] = target: full-length beta-Catenin (Uniprot ID P35222) (Homo sapiens (Human)) (UniProt P35222); assay: fluorescence polarization competition; peptide displaces 5FAM-TCF4(10-53) from full-length beta-catenin
Target sequence in this assay (P35222 2-781 limits assumed): as above

[3] = target: full-length beta-Catenin (Uniprot ID P35222) (Homo sapiens (Human)) (UniProt P35222); assay: fluorescence polarization competition; full-length beta-catenin + 5FAM-TCF4(10-53) probe; peptide titrated
Target sequence in this assay (P35222 2-781 limits assumed): as above

[4] = target: full-length beta-Catenin (Uniprot ID P35222) (Homo sapiens (Human)) (UniProt P35222); assay: fluorescence polarization competition; full-length beta-catenin; competitor displaced: 5FAM-TCF4 10-53
Target sequence in this assay (P35222 2-781 limits assumed): as above

[5] = target: full-length beta-Catenin (Uniprot ID P35222) (Homo sapiens (Human)) (UniProt P35222); assay: fluorescence polarization competition; 10 nM full-length beta-catenin + 10 nM 5FAM-TCF4(10-53) probe, peptide titrated
Target sequence in this assay (P35222 2-781 limits assumed): as above

[6] = target: full-length beta-Catenin (Uniprot ID P35222) (Homo sapiens (Human)) (UniProt P35222); assay: fluorescence polarization competition; peptide titrated against 10 nM full-length beta-catenin + 10 nM 5FAM-TCF4(10-53) probe
Target sequence in this assay (P35222 whole entry, one chain of several): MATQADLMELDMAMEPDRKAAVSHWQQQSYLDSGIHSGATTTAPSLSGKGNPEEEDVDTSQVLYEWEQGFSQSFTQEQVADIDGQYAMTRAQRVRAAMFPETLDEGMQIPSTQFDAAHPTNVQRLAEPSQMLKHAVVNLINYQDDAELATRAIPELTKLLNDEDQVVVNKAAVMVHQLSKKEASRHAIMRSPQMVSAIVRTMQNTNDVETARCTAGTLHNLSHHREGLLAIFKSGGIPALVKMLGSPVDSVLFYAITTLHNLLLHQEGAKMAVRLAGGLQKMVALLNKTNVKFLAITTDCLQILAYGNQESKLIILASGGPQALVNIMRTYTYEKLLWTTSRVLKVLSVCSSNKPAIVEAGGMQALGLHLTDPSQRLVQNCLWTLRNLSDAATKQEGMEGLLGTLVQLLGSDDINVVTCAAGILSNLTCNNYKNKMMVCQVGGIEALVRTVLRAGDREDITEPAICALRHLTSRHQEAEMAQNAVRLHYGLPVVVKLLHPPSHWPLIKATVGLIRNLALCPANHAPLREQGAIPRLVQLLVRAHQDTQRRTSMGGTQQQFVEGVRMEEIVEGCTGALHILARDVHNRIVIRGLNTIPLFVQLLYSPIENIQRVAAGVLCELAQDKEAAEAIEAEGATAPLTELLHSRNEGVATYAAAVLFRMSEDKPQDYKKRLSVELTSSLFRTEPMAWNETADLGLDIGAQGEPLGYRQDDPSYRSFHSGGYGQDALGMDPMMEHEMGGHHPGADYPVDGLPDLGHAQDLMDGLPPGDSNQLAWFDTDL

[7] = target: full-length beta-Catenin (Uniprot ID P35222) (Homo sapiens (Human)) (UniProt P35222); assay: fluorescence polarization competition; full-length beta-catenin, competitor 5FAM-TCF4(10-53) probe
Target sequence in this assay (P35222 2-781 limits assumed): as the sequence (P35222 2-781 limits assumed) above

[8] = target: Bcat-Halo (UniProt P35222); assay: NanoBRET Abs IC50, Bcat-Halo/TCF4-Luc in HEK293 cells
[9] = target: full-length beta-Catenin (Uniprot ID P35222) (Homo sapiens (Human)) (UniProt P35222); assay: fluorescence polarization competition; displaces 5FAM-TCF4(10-53) from full-length beta-catenin
[10] = target: full-length beta-Catenin (Uniprot ID P35222) (Homo sapiens (Human)) (UniProt P35222); assay: fluorescence polarization competition; 10 nM full-length beta-catenin + 10 nM 5FAM-TCF4(10-53) probe
Target sequence in this assay (P35222 whole entry, one chain of several): as the sequence (P35222 whole entry, one chain of several) above

Chain of Bcat-Halo (P35222 whole entry): as the sequence (P35222 whole entry, one chain of several) above

Which EC50 [1] does the source give for Ac-[αAllylPro]D[tBuAla][B5(3)]DDAAFN[PyrS2][Bta][Bta]H-NH2 (staple 1-4, 4-11) [I-793] here?
Its EC50 is 14 nM.

What about the IC50 [2] of the same binder?
The IC50 was 14 nM.

Ac-[αAllylPro]DI[B5(8)]D[TfeGA]AAFN[S8][3Thi][Bta]Q-NH2 (staple 1-4, 4-11) [I-700] was tested. Which EC50 [3] did it give?
Its EC50 is 49 nM.

And the IC50 [4]?
The IC50 was 49 nM.

Which results are given for Ac-[αAllylPro]DA[B5(4)]DEAAFQ[S8][2Thi][Bta]Q-NH2 (staple 1-4, 4-11) [I-428]?
EC50 [5]: 60 nM; IC50 [6]: 60 nM

Which results are given for Ac-[αAllylPro]D[tBuAla][B5(13)]DDAAFN[PyrS3][3Thi][Bta]H-NH2 (staple 1-4, 4-11) [I-776]?
EC50 [7]: 5 nM; IC50 [2]: 5 nM

With Ac-[αAllylPro]DA[B5(4)]DEAAFN[S8]F[Bta]-NH2 (staple 1-4, 4-11) [I-432] as the binder, how does the EC50 [5] read?
Its EC50 is 145 nM.

And the IC50 [6]?
The IC50 was 145 nM.

Which EC50 [5] does the source give for Ac-[αAllylPro]DA[B5(4)]DEAA[3Thi]Q[S8][Phe(3-F)][Bta]Q-NH2 (staple 1-4, 4-11) [I-429] here?
The EC50 was 146 nM.

And the IC50 [6]?
The IC50 was 146 nM.

How did the IC50 [4] turn out when Ac-[αAllylPro]D[tBuAla][B5(4)]DEAAFN[S8][3Thi][Bta]Q-NH2 (staple 1-4, 4-11; not fully specified) [I-682] was run?
The IC50 was 41 nM.

How did the EC50 [3] turn out when Ac-[αAllylPro]DI[B5(8)]D[TfeGA]AAFN[S8][3Thi][Bta]H-NH2 (staple 1-4, 4-11) [I-702] was run?
The EC50 was 76 nM.

And the IC50 [4]?
Its IC50 is 76 nM.

Which EC50 [5] does the source give for Ac-[αAllylPro]DA[B5(4)]DEAA[3Thi]Q[S8][Phe(3-F)][Bta]-NH2 (staple 1-4, 4-11) [I-431] here?
Its EC50 is 1320 nM.

What about the IC50 [6] of the same binder?
The IC50 was 1320 nM.

For Ac-[αAllylPro]D[tBuAla][B5(3)]DDAAFN[PyrS2][3Thi]WH-NH2 (staple 1-4, 4-11) [I-792], which EC50 [1] is on record?
Its EC50 is 20 nM.

And the IC50 [2]?
The IC50 was 20 nM.

How did the EC50 [7] turn out when Ac-[αAllylPro]D[tBuAla][B5(13)]DDAAFN[SeN][3Thi][Bta]H-NH2 (staple 1-4, 4-11) [I-774] was run?
The EC50 was 38 nM.

And the IC50 [2]?
The IC50 was 38 nM.

Which results are given for Ac-[αAllylPro]D[tBuAla][B5(18)]DDAAFS[PyrS2″][Phe(2-Cl)][Bta]S-NH2 (staple 1-4, 4-11) [I-1019]?
IC50 [8]: 9600 nM; EC50 [9]: 5 nM

With Ac-[αAllylPro]DA[B5(3)]DEAAFQ[S8][3Thi][Bta]Q-NH2 (staple 1-4, 4-11; also: staple isomer composition, earlier eluting HPLC peak) [I-426] as the binder, how does the EC50 [5] read?
The EC50 was 109 nM.

And the IC50 [6]?
The IC50 was 109 nM.

What does the source list for Ac-[αAllylPro]D[tBuAla][B5(8)]DDAAFN[PyrS2″][3Thi][Bta]H-NH2 (staple 1-4, 4-11) [I-695]?
EC50 [3]: 5 nM; IC50 [4]: 5 nM

With Ac-[αAllylPro]DI[B5(8)]D[TfeGA]AAFN[S8]F[Bta]Q-NH2 (staple 1-4, 4-11) [I-699] as the binder, how does the EC50 [3] read?
Its EC50 is 43 nM.

What about the IC50 [4] of the same binder?
Its IC50 is 43 nM.

Ac-[αAllylPro]D[tBuAla][B5(13)]DDAAFN[PyrS2][2Thi][Bta]H-NH2 (staple 1-4, 4-11) [I-779] was tested. Which EC50 [7] did it give?
Its EC50 is 5 nM.

And the IC50 [2]?
The IC50 was 5 nM.

For Ac-[αAllylPro]D[tBuAla][B5(18)]D[TfeGA]FAFN[PyrS2″][Phe(2-Cl)][Bta]Q-NH2 (staple 1-4, 4-11) [I-1008], which IC50 [10] is on record?
Its IC50 is 9 nM.

And the IC50 [8]?
The IC50 was 14000 nM.

What about the EC50 [9] of the same binder?
Its EC50 is 9 nM.

Ac-[αAllylPro]D[hLeu][B5(3)]DDAAFN[PyrS2][3Thi][Bta]H-NH2 (staple 1-4, 4-11) [I-788] was tested. Which EC50 [1] did it give?
The EC50 was 5 nM.

What about the IC50 [2] of the same binder?
Its IC50 is 5 nM.

For Ac-[αAllylPro]D[tBuAla][B5(18)]D[TfeGA]LAFN[PyrS2″][Phe(2-Cl)][Bta]Q-NH2 (staple 1-4, 4-11) [I-1007], which IC50 [10] is on record?
The IC50 was 6 nM.

And the IC50 [8]?
The IC50 was 24900 nM.

And the EC50 [9]?
The EC50 was 6 nM.

What does the source list for Ac-[αAllylPro]D[tBuAla][B5(18)]D[TfeGA]ALFN[PyrS2″][Phe(2-Cl)][Bta]Q-NH2 (staple 1-4, 4-11) [I-1002]?
IC50 [10]: 9 nM; IC50 [8]: 29800 nM; EC50 [9]: 9 nM

Ac-[αAllylPro]D[tBuAla][B5(13)]DDAAFN[PyrS2][Phe(2-Me)][Bta]H-NH2 (staple 1-4, 4-11) [I-782] was tested. Which EC50 [1] did it give?
Its EC50 is 6 nM.

And the IC50 [2]?
Its IC50 is 6 nM.

For Ac-[αAllylPro]D[tBuAla][B5(18)]D[TfeGA]ASFN[PyrS2″][Phe(2-Cl)][Bta]Q-NH2 (staple 1-4, 4-11) [I-1004], which IC50 [10] is on record?
The IC50 was 5 nM.

And the IC50 [8]?
The IC50 was 10600 nM.

And the EC50 [9]?
Its EC50 is 5 nM.

How did the EC50 [5] turn out when Ac-[αAllylPro]DA[B5(4)]DEAA[3Thi]Q[S8][Phe(3-F)][Bta]H-NH2 (staple 1-4, 4-11) [I-430] was run?
Its EC50 is 154 nM.

And the IC50 [6]?
The IC50 was 154 nM.

How did the EC50 [5] turn out when Ac-[αAllylPro]DA[B5(4)]DEAAFQ[S8][3Thi][Bta]Q-NH2 (staple 1-4, 4-11; also: staple isomer composition, later-eluting HPLC peak) [I-427] was run?
Its EC50 is 38.5 nM.

And the IC50 [6]?
Its IC50 is 38.5 nM.

Ac-[αAllylPro]D[tBuAla][B5(3)]DDAAFN[PyrS2][3Thi][2Nal]H-NH2 (staple 1-4, 4-11) [I-790] was tested. Which EC50 [1] did it give?
Its EC50 is 24 nM.

What about the IC50 [2] of the same binder?
Its IC50 is 24 nM.

For Ac-[αAllylPro]D[tBuAla][B5(13)]DDAAFN[SeN][3Thi][Bta]H-NH2 (staple 1-4, 4-11) [I-773], which EC50 [7] is on record?
Its EC50 is 167 nM.

What about the IC50 [2] of the same binder?
The IC50 was 167 nM.

Which results are given for Ac-[αAllylPro]D[tBuAla][B5(5)]DDAAFN[PyrS2][3Thi][Trp(5-Cl)]H-NH2 (staple 1-4, 4-11) [I-791]?
EC50 [1]: 310 nM; IC50 [2]: 310 nM

How did the EC50 [3] turn out when Ac-[αAllylPro]D[tBuAla][B5(8)]DEAAFN[PyrS2″][3Thi][Bta]H-NH2 (staple 1-4, 4-11) [I-698] was run?
The EC50 was 5 nM.

What about the IC50 [4] of the same binder?
The IC50 was 5 nM.

Reference: patent publication US20240116985A1, “STAPLED PEPTIDES AND METHODS THEREOF” (priority 2020, published 2024)
